Reference: publication PMC9165289, “Theranostic PSMA ligands with optimized backbones for intraoperative multimodal imaging and photodynamic therapy of prostate cancer” (European Journal of Nuclear Medicine and Molecular Imaging, 2022)
Where two headings read alike, the source gives them in different places.

Tests used:
LS174T-PSMA cells [1] = tested on: LS174T-PSMA cells; design: method as in PMID 33408764; settings: head-to-head comparison; cited from earlier work
[2] = tested on: LS174T-PSMA and LS174T wildtype xenografts; test: PSMA-N064 blocking experiment, ex vivo biodistribution; format: in vivo, BALB/c nude mice; settings: 0.3 nmol, 10 MBq, i.v., 2 h p.i., n=5
Experimental: (§1) All animal experiments were approved by the institutional Animal Welfare Committee of the Radboud University Medical Center and were conducted in accordance to the guidelines of the Revised Dutch Act on Animal Experimentation. Animal experiments were performed in 8–10 weeks old male BALB/c nude mice (Janvier). The mice were housed in individually ventilated cages (Blue line IVC, 3–5 mice per cage), under standard non-sterile conditions with cage enrichment present. There was free access to chlorophyll-free animal chow (Sniff Voer) and water. Mice were subcutaneously inoculated with 3.0 × 10^6 LS174T-PSMA cells in the right flank and 1.5 × 10^6 LS174T WT cells in the left flank (diluted in 200-µl RPMI 1640 medium). When xenografts were approximately 0.5 cm^3 (10–14 days after injection), mice were block-randomized into groups based on tumor size. The researchers were not blinded for the experimental groups.
Five mice per group were intravenously injected with either 0.1 nmol PSMA-N064, 0.3 nmol PSMA-N064, 0.1 nmol PSMA-N064 + 10 nmol unlabeled PSMA-617 (100x excess) or PSMA-617. Ligands were labeled with 10 MBq ^111In in PBS+0.5% (w/v) BSA. For the ex vivo biodistribution four groups (one for each experimental condition) of five mice were included. Two hours p.i., all mice from all groups were euthanized by CO2/O2-asphyxiation and relevant tissues were dissected, weighed and measured for radioactivity in a gamma-counter (2480 WIZARD^2 Automatic Gamma Counter, PerkinElmer).

[3] = ex vivo biodistribution of 111In-labeled ligands; design: species or system BALB/c nude mice; settings: male, BALB/c nude, mouse, iv, 0.3 nmol, total radioactivity, 2 h p.i.; for tissue uptake at 2 h: 10 MBq/mouse, i.v.
Experimental: as §1
(§2) Mice were intravenously injected with 0.3 nmol PSMA ligand, labeled with 10 MBq ^111In (molar activity 33.3 MBq/nmol) in PBS + 0.5% (w/v) BSA. For the ex vivo biodistribution, five groups (one group for each ligand) of four mice were included. Two hours p.i., all mice were euthanized by CO2/O2-asphyxiation. For two mice of each group (2 mice/ligand), background-subtracted fluorescence images were acquired with the IVIS imaging system (Xenogen VivoVision IVIS Lumina II, PerkinElmer), with a 640-nm excitation filter and a Cy5.5 emission filter and an acquisition time of 10 s. Next, µSPECT/CT imaging was performed in the same two mice per group, with a 1.0-mm diameter pinhole mouse collimator tube (U-SPECT II, MILabs). Mice were scanned for 30 min followed by a CT scan for anatomical reference (spatial resolution 160 μm, 615 μA, 65 kV). MILabs reconstruction software was used to reconstruct the µSPECT/CT scans, via an ordered-subset expectation maximization algorithm, energy windows 154–188 keV and 220–270 keV, 3 iterations, 16 subsets, and voxel size of 0.75 mm. SPECT/CT maximum intensity projections (MIPs) were created using the Inveon Research Workplace software (Siemens Preclinical Solutions, version 4.1). NIR fluorescence images were analyzed using Living Image software (PerkinElmer, version 4.2). After imaging, relevant tissues were dissected, weighed, and measured for radioactivity in a gamma-counter (2480 WIZARD^2 Automatic Gamma Counter, PerkinElmer). In addition, a blocking experiment with PSMA-N064 and PSMA-617 was performed. Full experimental procedures and results can be found in the supplementary data (Page 5, Supplementary Fig. 3).

[4] = tested on: LS174T-PSMA and LS174T wildtype xenografts; test: ex vivo biodistribution of 111In-labeled ligands; design: species or system BALB/c nude mice; settings: 0.3 nmol, 2 h p.i.
Experimental: as §1, §2

LS174T-PSMA cells [5] = test: in vitro binding and internalization assay; format: cell-based, human; settings: for PSMA-specific membrane binding and internalization: corrected for non-specific binding (2-PMPA)
Experimental: The binding and internalization characteristics of the ligands were determined using LS174T-PSMA cells. Cells were cultured to confluency in 6-well plates followed by incubation with 50,000 counts per minute of ^111In-labeled ligand (0.1–0.25 pmol/well) in 1-ml RPMI + 0.5% BSA (37 °C, 2 h). Non-specific binding was determined by coincubation with 2(phosphonomethyl)-pentane-1,5-dioic acid (2-PMPA, 21.57 µM). PSMA-specific binding was defined as total binding minus the non-specific binding. To retrieve the membrane-bound fraction, cells were washed twice with PBS and incubated for 10 min at 0 °C with acid buffer (154-mM NaCl, 0.1 M acetic acid, pH 2.6). After incubation, the membrane-bound fraction was collected. Then, cells were washed and lysed with 0.1 M NaOH, and the cell lysate (intracellular activity) was collected. Intracellular and membrane-bound activity fractions were measured in a gamma-counter (2480 WIZARD^2 Automatic Gamma Counter, PerkinElmer).

[6] = tested on: LS174T-PSMA and LS174T wildtype xenografts; test: µSPECT/CT and NIR fluorescence imaging; format: in vivo, BALB/c nude mice; settings: 0.3 nmol, 10 MBq/mouse, 2 h p.i.
Excerpt: as §2, with “SPECT/CT maximum intensity projections (MIPs) were created using the Inveon Research Workplace software (Siemens Preclinical Solutions, version 4.1).” left out, “In addition, a blocking experiment with PSMA-N064 and PSMA-617 was performed. Full experimental procedures and results can be found in the supplementary data (Page 5, Supplementary Fig. 3).” left out

PSMA [7] = tested on: PSMA; design: method as in PMID 27789722, PMID 29651565; settings: reported in the literature; cited from earlier work
PSMA [8] = tested on: PSMA; design: method as in PMID 27789722, PMID 29651565; settings: reported in the literature; cited from earlier work; remark: listed apart in the source
[9] = LS174T wildtype tumor, n=4, read-out: Biodistribution Tumor- LS174T
[10] = LS174T-PSMA tumor, n=4, read-out: Biodistribution Tumor+ LS174T-PSMA
[11] = adrenals, n=4, read-out: Biodistribution Adrenals
[12] = blood, n=4, read-out: Biodistribution Blood
[13] = bone marrow, n=4, read-out: Biodistribution Bone marrow
[14] = bone, n=4, read-out: Biodistribution Bone
[15] = duodenum, n=4, read-out: Biodistribution Duodenum
[16] = heart, n=4, read-out: Biodistribution Heart
[17] = kidney, n=4, read-out: Biodistribution Kidney
[18] = liver, n=4, read-out: Biodistribution Liver
[19] = lung, n=4, read-out: Biodistribution Lung
[20] = muscle, n=4, read-out: Biodistribution Muscle
[21] = pancreas, n=4, read-out: Biodistribution Pancreas
[22] = prostate, n=4, read-out: Biodistribution Prostate
[23] = salivary glands, n=4, read-out: Biodistribution Salivary glands
[24] = spleen, n=4, read-out: Biodistribution Spleen
[25] = stomach, n=4, read-out: Biodistribution Stomach
[26] = tumor (LS174T-PSMA xenograft) / blood, read-out: Tumor/Blood ratio
[27] = tumor (LS174T-PSMA xenograft) / kidney, read-out: Tumor/Kidney ratio
[28] = tumor (LS174T-PSMA xenograft) / liver, read-out: Tumor/Liver ratio
[29] = tumor (LS174T-PSMA xenograft) / spleen, read-out: Tumor/Spleen ratio

| Compound | tissue uptake at 2 h [3, 9] | tissue uptake at 2 h [3, 10] | tissue uptake at 2 h [3, 11] | tissue uptake at 2 h [3, 12] | tissue uptake at 2 h [3, 13] | tissue uptake at 2 h [3, 14] | tissue uptake at 2 h [3, 15] | tissue uptake at 2 h [3, 16] | tissue uptake at 2 h [3, 17] | tissue uptake at 2 h [3, 18] | tissue uptake at 2 h [3, 19] | tissue uptake at 2 h [3, 20] | tissue uptake at 2 h [3, 21] | tissue uptake at 2 h [3, 22] | tissue uptake at 2 h [3, 23] | tissue uptake at 2 h [3, 24] | tissue uptake at 2 h [3, 25] | tissue to tissue ratio at 2 h [3, 26] | tissue to tissue ratio at 2 h [3, 27] | tissue to tissue ratio at 2 h [3, 28] | other results |
| --- | --- | --- | --- | --- | --- | --- | --- | --- | --- | --- | --- | --- | --- | --- | --- | --- | --- | --- | --- | --- | --- |
| O=C(O)CC[C@H](NC(=O)N[C@@H](CCCCNC(=O)[C@H](Cc1ccc2ccccc2c1)NC(=O)[C@H]1CC[C@H](CNC(=O)CN2CCN(CC(=O)O)CCN(CC(=O)O)CCN(CC(=O)O)CC2)CC1)C(=O)O)C(=O)O [PSMA-617] |  |  |  |  |  |  |  |  |  |  |  |  |  |  |  |  |  |  |  |  | internalization ratio (LS174T-PSMA cells [1]): 46%; Biodistribution Tumor+ LS174T-PSMA [2]: 19 ± 2 %ID/g |
| C[Si](C)(CCC[N+](CCCS(=O)(=O)[O-])(CCCS(=O)(=O)O)CCCS(=O)(=O)O)O[Si]1(O[Si](C)(C)CCC[N+](CCCS(=O)(=O)[O-])(CCCS(=O)(=O)O)CCCS(=O)(=O)O)n2c3c4ccccc4c2N=C2N=C(N=c4c5c(OCCCOC(=O)NCCCCCC(=O)NCCCC[C@H](NC(=O)CN6CCN(CC(=O)O)CCN(CC(=O)O)CCN(CC(=O)O)CC6)C(=O)NCCCC[C@H](NC(=O)[C@H](CCC(=O)O)NC(=O)c6cccnc6)C(=O)NCc6ccc(C(=O)N[C@@H](Cc7ccc8ccccc8c7)C(=O)NCCCC[C@H](NC(=O)N[C@@H](CCC(=O)O)C(=O)O)C(=O)O)cc6)cccc5c(n41)=NC1=NC(=N3)c3ccccc31)c1ccccc12 [PSMA-N02] | 0.6 ± 0.2 %ID/g | 23 ± 2 %ID/g | 1.2 ± 0.2 %ID/g | 0.5 ± 0.01 %ID/g | 0.1 ± 0.1 %ID/g | 0.5 ± 0.04 %ID/g | 0.4 ± 0.05 %ID/g | 0.4 ± 0.05 %ID/g | 99 ± 12 %ID/g | 1.1 ± 0.1 %ID/g | 1 ± 0.3 %ID/g | 0.2 ± 0.04 %ID/g | 0.3 ± 0.05 %ID/g | 0.5 ± 0.1 %ID/g | 0.6 ± 0.1 %ID/g | 1.6 ± 0.2 %ID/g | 0.5 ± 0.1 %ID/g | 43.1 ± 4.1 | 0.3 ± 0.01 | 21.6 ± 1.6 | tissue to tissue ratio at 2 h [3, 29]: 14.3 ± 2.5; Tumor/Negative tumor ratio [4]: 42.2 ± 16.4; Tumor/Prostate ratio [4]: 46.9 ± 13.8; Tumor/Salivary gland ratio [4]: 39.2 ± 3.7; internalization percentage (percentage of cell-associated ligand that was internalized) (LS174T-PSMA cells [5]; 37 °C, 2 h): 73–90%; PSMA-specific membrane binding and internalization (LS174T-PSMA cells [5]): highest membrane-bound and internalized fraction |
| CC(=O)N[C@@H](CCCCNC(=O)CCCCCNC(=O)[C@H](CCC(=O)O)NC(=O)[C@H](CCC(=O)O)NC(=O)[C@H](Cc1ccccc1)NC(=O)[C@H](CCCCNC(=O)CCCCCNC(=O)OCCCOc1cccc2c3n4c(c12)=NC1=NC(=Nc2c5ccccc5c(n2[Si]4(O[Si](C)(C)CCC[N+](CCCS(=O)(=O)[O-])(CCCS(=O)(=O)O)CCCS(=O)(=O)O)O[Si](C)(C)CCC[N+](CCCS(=O)(=O)[O-])(CCCS(=O)(=O)O)CCCS(=O)(=O)O)N=C2N=C(N=3)c3ccccc32)c2ccccc21)NC(=O)CCC(C(=O)O)N1CCN(CC(=O)O)CCN(CC(=O)O)CCN(CC(=O)O)CC1)C(=O)O (some centres unmarked) [PSMA-N064inc, reference compound] | 0.4 ± 0.1 %ID/g | 0.5 ± 0.2 %ID/g | 0.7 ± 0.6 %ID/g | 0.3 ± 0.2 %ID/g | 0.1 ± 0.03 %ID/g | 0.2 ± 0.1 %ID/g | 0.2 ± 0.04 %ID/g | 0.3 ± 0.1 %ID/g | 47 ± 6 %ID/g | 0.6 ± 0.1 %ID/g | 0.3 ± 0.1 %ID/g | 0.1 ± 0.1 %ID/g | 0.1 ± 0.04 %ID/g | 0.6 ± 0.7 %ID/g | 0.3 ± 0.05 %ID/g | 0.2 ± 0.04 %ID/g | 0.4 ± 0.1 %ID/g | 1.5 ± 0.6 | 0.01 ± 0.003 | 0.7 ± 0.2 | renal ligand accumulation on images [6]: lowest; tissue to tissue ratio at 2 h [3, 29]: 2.1 ± 0.5; Tumor/Negative tumor ratio [4]: 1.1 ± 0.5; Tumor/Prostate ratio [4]: 1.3 ± 0.9; Tumor/Salivary gland ratio [4]: 1.6 ± 0.5; PSMA-specific membrane binding and internalization (LS174T-PSMA cells [5]): no binding and internalization |
| PSMA-1007 |  |  |  |  |  |  |  |  |  |  |  |  |  |  |  |  |  |  |  |  | IC50 (PSMA [7]): 4.2 ± 0.5 nM; internalization ratio (PSMA [8]): 67% |
